Our source for the protein stability index values is the supplement of paper PMC10724198.

The subject of this data set is Saccharomyces cerevisiae. Description: protein stability index of tFT-peptide fusion (C-terminal peptide) (PSI (0-1 scale)); higher = more stable (slower turnover). The settings on record: temperature: 30 C. As to the method:
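MPS profiling in S. cerevisiae of the yeast C-terminome library: the last 12 aa of each annotated ORF are fused to the C-terminus of a sfGFP-mCherry timer, after a GGGS linker. Cells are FACS-sorted into 8 mCherry/sfGFP bins and deep-sequenced. PSI runs from 0 (unstable) to 1 (stable); wild type and das1Δ backgrounds, two technical replicates each.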

The mark [1] stands for this setting: genetic background: das1 deletion.

± gives the standard deviation of the averaged measurements.

Take EEDPEYFQHALQ [GRX4 C-terminal 12 aa]: the protein stability index by setting is: under setting [1], 0.71049 ± 4e-05; (genetic background: wild type) 0.715 ± 0.049.
In the same order, the values of EEEKRHGIYLKC [GUP1 C-terminal 12 aa] are 0.694 ± 0.029 and 0.647 ± 0.019.
Take EEFNKQLKDIEA [YOR289W C-terminal 12 aa]: the protein stability index by setting is: under setting [1], 0.69 ± 0.026; (genetic background: wild type) 0.661 ± 0.017.
EEGQTQPEEESA [BUR6 C-terminal 12 aa]: the protein stability index is, setting by setting: under setting [1], 0.691 ± 0.0078; (genetic background: wild type) 0.692 ± 0.033.
As to EERDRRRAQQGL [RPS4A C-terminal 12 aa], the protein stability index by setting is: under setting [1], 0.6948 ± 0.0053; (genetic background: wild type) 0.692 ± 0.05.
In the same order, the values of EFDDYESRMHGI [EAR1 C-terminal 12 aa] are 0.73 ± 0.029 and 0.694 ± 0.0086.
In the same order, the values of EGEDEELDIDDI [TIF11 C-terminal 12 aa] are 0.671 ± 0.0097 and 0.6717 ± 0.0065.
In the same order, the values of EGIETTHNKRIR [AMA1 C-terminal 12 aa] are 0.675 ± 0.018 and 0.666 ± 0.036.
As for EGKWEPAGEVHQ [SEC13 C-terminal 12 aa], the protein stability index came to 0.706 ± 0.012 under setting [1] and 0.7167 ± 0.0048 (genetic background: wild type).
In the same order, the values of EGVVLGQRRDIV [SCP1 C-terminal 12 aa] are 0.696 ± 0.028 and 0.672 ± 0.0097.
In the same order, the values of EHLWNCFFHGSD [IRC20 C-terminal 12 aa] are 0.73 ± 0.012 and 0.731 ± 0.061.
In the same order, the values of EHVGKQCGYKYH [STP3 C-terminal 12 aa] are 0.705 ± 0.023 and 0.7096 ± 0.0013.
As to EIFNDFSKRCCF [CDC43 C-terminal 12 aa], the protein stability index was 0.7326 ± 0.0031 under setting [1] and 0.73168 ± 0.00037 (genetic background: wild type).
In the same order, the values of EIMLGKNLLITS [YNL109W C-terminal 12 aa] are 0.619 ± 0.0087 and 0.503 ± 0.028.
Take EIVRNFSLFNMV [ARP3 C-terminal 12 aa]: the protein stability index reads like this: under setting [1], 0.697 ± 0.031; (genetic background: wild type) 0.6866 ± 0.0035.
Regarding EKANDIGFNKFR [RPS29A C-terminal 12 aa], the protein stability index runs as follows: under setting [1], 0.678 ± 0.014; (genetic background: wild type) 0.7106 ± 0.006.
EKDNSQKIEAKK [SDH4 C-terminal 12 aa]: the protein stability index turned out to be 0.69 ± 0.012 under setting [1] and 0.697 ± 0.11 (genetic background: wild type).
In the same order, the values of EKEALWKFAKRL [ATP10 C-terminal 12 aa] are 0.699 ± 0.032 and 0.3037 ± 0.00067.
In the same order, the values of EKKYLNQSQNQA [BSD2 C-terminal 12 aa] are 0.684 ± 0.035 and 0.692 ± 0.059.
In the same order, the values of EKLISLSQSMEN [ATP11 C-terminal 12 aa] are 0.718 ± 0.0096 and 0.785 ± 0.11.
Sequence EKVTNTLSSLKF [LTV1 C-terminal 12 aa] had a protein stability index under setting [1] of 0.694 ± 0.0074 and a protein stability index (genetic background: wild type) of 0.669 ± 0.017.
In the same order, the values of ELAKKWKQEQAL [CLF1 C-terminal 12 aa] are 0.676 ± 0.011 and 0.667 ± 0.011.
In the same order, the values of ELFTILHDLTAA [TPS3 C-terminal 12 aa] are 0.718 ± 0.086 and 0.6612 ± 0.005.
Turning to ELPSYKKTSKQN [PSG1 C-terminal 12 aa], the protein stability index runs as follows: under setting [1], 0.722 ± 0.03; (genetic background: wild type) 0.701 ± 0.077.
In the same order, the values of ELSMIMEHFSQQ [RPS12 C-terminal 12 aa] are 0.72 ± 0.02 and 0.7056 ± 0.0036.
Take ELTLFLSYKSYS [YGR045C C-terminal 12 aa]: the protein stability index reads like this: under setting [1], 0.683 ± 0.02; (genetic background: wild type) 0.64 ± 0.017.
On to ELTRLVDSKRKR [HFA1 C-terminal 12 aa], for which the protein stability index amounted to 0.717 ± 0.045 under setting [1] and 0.667 ± 0.011 (genetic background: wild type).
Consider ELWTLQAPELNL [YKL036C C-terminal 12 aa], for which the protein stability index stood at 0.72 ± 0.021 under setting [1] and 0.702 ± 0.04 (genetic background: wild type).
In the same order, the values of “ENAGKIFFNETE [YHR213W-A C-terminal 12 aa]” are 0.733 ± 0.029 and 0.684 ± 0.033.
In the case of ENKPDSTFGIIL [YOR170W C-terminal 12 aa], the protein stability index runs as follows: under setting [1], 0.718 ± 0.019; (genetic background: wild type) 0.749 ± 0.11.
For ENLITILDSNYI [ISR1 C-terminal 12 aa], the protein stability index is 0.74 ± 0.0095 under setting [1] and 0.696 ± 0.01 (genetic background: wild type).
For the sequence ENLTQKKKQSAN [PCT1 C-terminal 12 aa], the protein stability index stood at 0.703 ± 0.0058 under setting [1] and 0.65 ± 0.011 (genetic background: wild type).
Take ENRPGPYEFRET [FMP41 C-terminal 12 aa]: the protein stability index is, setting by setting: under setting [1], 0.6916 ± 0.0065; (genetic background: wild type) 0.779 ± 0.053.
In the same order, the values of EPKEIVDGKVLK [CAM1 C-terminal 12 aa] are 0.692 ± 0.021 and 0.708 ± 0.034.
In the same order, the values of EPTLKLSNIYRQ [YBR174C C-terminal 12 aa] are 0.7092 ± 0.0033 and 0.71982 ± 0.00048.
Consider EQDAILLKKHIS [NAT5 C-terminal 12 aa], for which the protein stability index is, setting by setting: under setting [1], 0.714 ± 0.033; (genetic background: wild type) 0.3 ± 0.029.
In the same order, the values of ERAIKTVRYLLY [YOL079W C-terminal 12 aa] are 0.678 ± 0.008 and 0.631 ± 0.021.
Regarding ERKLSTKKVSVE [YHR078W C-terminal 12 aa], the protein stability index amounted to 0.707 ± 0.052 under setting [1] and 0.7 ± 0.032 (genetic background: wild type).
In the same order, the values of ERTKLREKLEII [PXA1 C-terminal 12 aa] are 0.7064 ± 0.0059 and 0.677 ± 0.077.
In the same order, the values of ESDLAAARSEDK [VTH1 C-terminal 12 aa] are 0.7237 ± 0.0031 and 0.659 ± 0.012.
In the same order, the values of ESEKELYNATRA [NHP6B C-terminal 12 aa] are 0.68817 ± 0.00058 and 0.716 ± 0.034.
For the sequence ESNSALDFTRLA [SSU1 C-terminal 12 aa], the protein stability index reads like this: under setting [1], 0.707 ± 0.025; (genetic background: wild type) 0.712 ± 0.059.
Turning to ESQPAPKEAPDY [SNP1 C-terminal 12 aa], the protein stability index stood at 0.674 ± 0.028 under setting [1] and 0.702 ± 0.022 (genetic background: wild type).
In the case of ETLEAETVKIDI [POL31 C-terminal 12 aa], the protein stability index came to 0.69571 ± 0.00029 under setting [1] and 0.7012 ± 0.0013 (genetic background: wild type).
For EVDDDGEIEGLF [MIS1 C-terminal 12 aa], the protein stability index was determined as 0.7072 ± 0.0051 under setting [1] and 0.684 ± 0.022 (genetic background: wild type).
In turn, EVDIGLYNCADY [ADE4 C-terminal 12 aa] yielded a protein stability index under setting [1] of 0.714 ± 0.05 and a protein stability index (genetic background: wild type) of 0.667 ± 0.02.
On to EVISSYQIDMIV [HIM1 C-terminal 12 aa], for which the protein stability index runs as follows: under setting [1], 0.657 ± 0.013; (genetic background: wild type) 0.62 ± 0.0077.
In the same order, the values of EVLHEWKSHINQ [BIO3 C-terminal 12 aa] are 0.743 ± 0.017 and 0.6763 ± 0.0056.
In the same order, the values of EVVRFYTIEAKL [AAT2 C-terminal 12 aa] are 0.771 ± 0.032 and 0.724 ± 0.085.
For the sequence EWEEKQGMDFVR [GPN2 C-terminal 12 aa], the protein stability index under setting [1] amounted to 0.7083 ± 0.0027 and the protein stability index (genetic background: wild type) stood at 0.685 ± 0.0095.
For EYSWEKPKKLEF [SAM2 C-terminal 12 aa], the protein stability index is, setting by setting: under setting [1], 0.7075 ± 0.0037; (genetic background: wild type) 0.698 ± 0.035.
In the same order, the values of FALVLAYMRLLT [FMP32 C-terminal 12 aa] are 0.4219 ± 0.0012 and 0.237 ± 0.012.
As to FDELFISTEVEL [TCA17 C-terminal 12 aa], the protein stability index reads like this: under setting [1], 0.718 ± 0.018; (genetic background: wild type) 0.6851 ± 0.0011.
In the same order, the values of FDVIKECQTLSN [PUG1 C-terminal 12 aa] are 0.683 ± 0.037 and 0.6484 ± 0.0017.
As to FELAKVSFDNKR [YKR104W C-terminal 12 aa], the protein stability index runs as follows: under setting [1], 0.736 ± 0.031; (genetic background: wild type) 0.707 ± 0.095.
In the same order, the values of FERNYFPYSAVY [CLG1 C-terminal 12 aa] are 0.6077 ± 0.0039 and 0.608 ± 0.018.
In the same order, the values of FEYEPPKFNLSE [GTB1 C-terminal 12 aa] are 0.689 ± 0.025 and 0.659 ± 0.037.
In the same order, the values of FFSFIITIPFMV [YNL146W C-terminal 12 aa] are 0.305 ± 0.01 and 0.2042 ± 0.0015.
FFTTCTIGCYDA [BUD7 C-terminal 12 aa]: the protein stability index runs as follows: under setting [1], 0.6871 ± 0.0048; (genetic background: wild type) 0.6861 ± 0.0047.
In the same order, the values of FGKRRFFYRDLA [YPR146C C-terminal 12 aa] are 0.6901 ± 0.0029 and 0.693 ± 0.014.
In the case of FHDWFIRQFVSN [SNO1 C-terminal 12 aa], the protein stability index was 0.73 ± 0.0093 under setting [1] and 0.321 ± 0.034 (genetic background: wild type).
In the same order, the values of FIWQNVLMWLMG [YIF1 C-terminal 12 aa] are 0.7 ± 0.011 and 0.54 ± 0.017.
In the same order, the values of FKKSYKGVSKNL [MGM1 C-terminal 12 aa] are 0.704 ± 0.013 and 0.695 ± 0.022.
On to FLGIELHAFFVS [YOL035C C-terminal 12 aa], for which the protein stability index is 0.6355 ± 0.0029 under setting [1] and 0.635 ± 0.058 (genetic background: wild type).
In the same order, the values of “FLPFFLRFLCIN [YML116W-A C-terminal 12 aa]” are 0.618 ± 0.021 and 0.206 ± 0.021.
Regarding FQVVGKKKGKRF [SYH1 C-terminal 12 aa], the protein stability index came to 0.715 ± 0.009 under setting [1] and 0.688 ± 0.049 (genetic background: wild type).
In the same order, the values of FRGKRYHTIKRQ [MSS51 C-terminal 12 aa] are 0.709 ± 0.0045 and 0.643 ± 0.035.
